Assay results from publication PMC4297295, “Structural Conservation Despite Huge Sequence Diversity Allows EPCR Binding by the PfEMP1 Family Implicated in Severe Childhood Malaria” (Cell Host & Microbe, 2015).

T1: endothelial protein C receptor (EPCR), extracellular domain, biotinylated on the N-terminal BAP tag (human, UniProt Q9UNN8 18-210, biotin attached to the N-terminal BAP tag (BirA))
T1 construct: also called biotinylated recombinant EPCR; ECPR
T1 sequence: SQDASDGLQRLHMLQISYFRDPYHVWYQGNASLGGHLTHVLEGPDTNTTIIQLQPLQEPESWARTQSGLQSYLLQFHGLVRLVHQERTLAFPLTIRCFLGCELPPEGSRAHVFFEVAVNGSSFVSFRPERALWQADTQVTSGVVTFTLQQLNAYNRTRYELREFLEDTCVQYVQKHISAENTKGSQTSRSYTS

B1: CIDRα1.6a domain of PfEMP1 PFD1235w (domain or fragment)
chain: PECGVQCSGTTCTPKKVIHPNCKDKETYEPGDAKTTDITVLYSGDEEGDIAQKLQDFCNDKNKENDENYEKWQCYYKSSEINKCQMTPSSHKVPKHGYIMSFYAFFDLWVKNLLIDSINWKNDLTNCINNTNVTDCKNDCNTNCKCFENWAKTKENEWKKVKTIYKNENGNTNNYYKKLNNHFQGYFFHVMKELNKEEKWYKLMEDLKEKIDSSNLKNGTKDSEGAIKVLFDHLKDIAERCIDNNSKDSC
notes: also called CIDRa1.6a PFD1235w_3D7; PFD1235w (1.6a)
B2: CIDRα1.6b domain GA019_ERS010031 (domain or fragment)
chain: PYCGLDCVGKTCTAKQEIYPDCVYNGDYEPPNGAETTEITVLYNDNEGDMSKKLSQFCSNENKENIENYQKWKCYYKDRDDIECEMISSSQKDEKHRKVMIFYNFFDLWVKNLLRDSIKWEIELKDCINNTNVTDCKSVCNVNCECFDKWVKQKEKEWDSIKKLLKKKKNVSKKYYTNINKNFEFFFFRVMYELNNEEAKWNKLMENLRTKINSYKKNKRTKDSEGAIKVLFDHLKETATICKDNNTNEACVSSQNATTNPC
notes: also called CIDRa1.6b GA019_ERS010031; GA019 (1.6b)
B3: CIDRα1.8a domain GA026_ERS010178 (domain or fragment)
chain: PDCVVDCKGAKCEQKMKPDGTCEKPQIYTRPKDVTPKIIKVLFSGDNQEDITEKLSSFCSNPKSKIDRNYQTWKCYYKSGHYNICEMKGSLYKYPEHPNDMLSVECFHLWVKNLLIDTIKWETKLKKCINNTNVTDCDNECNKNCECFENWVEQKKKEWEEVRKVYKDQKESLGIYYKKLENLFDTYYFEVMGALENEEKHGKWNQLTAKLKQIIESHKKNRHSGNSQDAIELLLDHLKETATTCKDNNSNESCDVSKDSKTNPC
notes: also called CIDRa1.8a GA026_ERS010178; GA026 (1.8a)
B4: CIDRα1.8b domain 1702-3 (patient isolate 1702) (domain or fragment)
chain: PDCIVVCDYKGCKENKNDENCKSKRTYSLPPDVNSTEIEVLFSGDNQEDIVEKLSSFCKNTNNENGENVEKWECYYESEHNNKCKMTSPKHKDEKRPTVMIFDEFFDFWVTHLIKDTIKWESDINDCINNTNVTDCDSACNENCKCFDEWVEKKEVEWGNVKKVLGNRSENLNIYYNKLNGIFSGFFFGVMHELKKKEAKQGVKAEEAQEAEETQEAQEEEAKWNKLTAKLQEIIDSSKGKADTANSQDAIKPLLEYIKETATTCIDNNSLAVENCPKTKINPC
B5: CIDRα1.1 domain of PfEMP1 IT4var19 (domain or fragment)
chain: PDCVVVCEGGNCKEKTEDDNCRSEIIKKILKYETPTPIDVLYSGKGQGLITKKLEDFCSSTTNYEGTNVQKWKCYNKNKDYNNCEMNISSYKDATDPNVMLSVECFHSWAKNLLIDTIRWEHQLKNCINNTNVTDCTSKCIKNCECYEKWIKEKEKEWPQVKGVLKKKDETSHNYYDKLKDVFDRFLFEVKGALDQDEKGKWDQFTKDLEKKFGPSVESAGTANSQDAIELLLDHLNDNATTCKDNNSLAVENC
notes: also called CIDRa1.1 IT4var19_IT4; IT4var19 (1.1)
B6: CIDRα1.8b domain 2053-3 (patient isolate 2053) (domain or fragment)
chain: PICGVKCENKSCTDKENDDDCKNKKKYDPPKGVTPIDIPILYSGDKQGDITKKLEDFCYNRTKENEKTYQNWKCYYKDSEFNKCKMESKSGKSTTQEKIISFDEFFYLWVNNLLIDSIMWENDIKHCINNTNVTNCKNKCNENCKCFKNWVKKKEEEWTKVKQILGNRSENLNNYYNKLNSLFKGFFFEVVYKFNNKEEKWNKLTEKLEQKIGSSKGKEGVENPKDAIELLLDHLKENAITCKDNNSLEEDKNCPKIKINPC
B7: CIDRα1.8b domain GA029_ERS010532 (domain or fragment)
chain: PDCVVVCERGNCTEKKGDDKCRKKYTYEIPAGMESTKIDILFSGENQEDITEKLRSFCKNTNNENGENIEKWECYYKNEYDNKCKMTSLKREDQKHHDLMSYYEFFDFWVTHLIKDTIKWESDINDCINNTNVTNCNNGCNENCICFEKWVGQKEKEWENVKKVLKNPSENLNNYYNKLNGIFSGFFFGVMHELKKKEAKQGVKVEKAEKSEEAQEAQEEEAKWNKLTAKLEEIIKSHKENTGTGNTQDAIEPLLKYLDENAITCKDNNSLKEDKNCPKTKKNPC
notes: also called CIDRa1.8b GA029_ERS010532; GA029 (1.8b)
B8: CIDRα1.6b domain GA018_ERS010570 (domain or fragment)
chain: PYCGLDCVGTECTAKEEIYPDCVYNGEYDPPKDVRPTEINVIDSGNAVNISEKLNDFCTNPTNPNDKIYQKWQCYYKSSKVNKCQMTSLTQTLQKHHYVMTFYIFFDLWVKNLLRDSVKWEIELKDCINNTNVTDCNNKCNKNCVCFDKWVKQKKKEWDSIKKLFKTEKDEMKKYYTNINKNFEFFFFRVMYELNNEEAKWNKLMENLRIKIKSSKRNKRTKDSEGVIKVLFDHLKETATICKDNNTNEACVSSQNATTNPC
notes: also called CIDRa1.6b GA018_ERS010570; GA018 (1.6b)
B9: CIDRα1.7 domain 1965-8 (patient isolate 1965) (domain or fragment)
chain: PHCGVDCNGKKCTLKSDNDPQCVNKLKYEPPYGVKPTEITVLYSADQEGDISKKLSEFCNDEKKINSKNIETWKCYYKSTYNNACKMDKNSKNHTPEVKITKFHNFFEMWIVYLLTETITWNDKLKTCMNNIKTTDCIDECNTNCVCFDKWVKQKGKEWNSIKKLFIKEQKNPKQNYGNINIYFESFFFHVMDKLNHDEAKWNELMNELKQIIDSSKANTDNKNLQDAIKVLFDHLKEIATICKDNNTNEACEDSKKETQNPC
B10: CIDRα1.6a domain of PfEMP1 HB3var02 (domain or fragment)
chain: PECGVQCSGTTCTPKKVIHPNCKDKETYEPGDAKTTDITVLYSGDEEGDIAQKLQDFCNDKNKENDENYEKWQCYYKSSEINKCQMTRSSKKVPKHRGVMSFYAFFDLWVKNLLIDSINWKNDLTNCINNTNVTDCNKDCNKNCVCFDQWVIKKEEEWKNVNKVFENKNIDLHDYYNKLNKHFEGYFFHVMKELNKEEKWYKLMEDLKEKIDFSKGKADGKNSEGAIKVLFDHLKEIAEKCIHNNSNESCEASTNRTPNPC
notes: also called CIDRa1.6a HB3var02_HB3; HB3var02 (1.6a)
B11: CIDRα1.1 domain 2110-3 (patient isolate 2110) (domain or fragment)
chain: CPDCVVECVGGECKQKTDDDKNCRSKIIEEILKGEEPTVIDVLYSGNGQGVITKKLHDFCSSTNKEDDKYYKKWKCYNKNSDYNNCELISSLSTDPNDPNVMLSIKCFDSWARNLLVDALKWEHQLKNCINNTNVTDCKSNCNNNCKCYEEWIKRKGREWKQVKGVIENNDEGSHYYYKNVKNLFYNFLYPVIYKLEKEEKNGKWDQFMEDLKKKIESSETNTHTTDSQDAIELLLDHLKENAITCKDNNSLEEDKNC
B12: CIDRα1.8a domain of PfEMP1 MAL6P1.316 (domain or fragment)
chain: PACVVECDGGKCEEKKNSDGTCIEAQIYTVVRDETPTPIKVLFSGDHQKDITKKLSSFCKNPESENNRDYQTWQCYYKSSDYNNCEMKGSLYKVEGDPNIIVSHECFHLWVQSLLIDTIKWETKLKKCINNTNVTNCYNKCNKNCECFENWVEQKKKEWENVNDVYKDQKQSLGIYYEKLENLFKSNFFQVMKALEGDEKGKWYQFKDDLKKKFEPSEKNTRTTDSQDAIKLILDHLKDNATTCKDNNSLEEDENC
notes: also called CIDRa1.8a MAL6P1.316_3D7; MAL6P1.316 (1.8a)
B13: CIDRα1.7 domain of PfEMP1 IT4var22 (domain or fragment)
chain: PYCGLDCGGKTCTAKQEIYPDCVYNGAYEPPNGAETTEITVLYSADQEGDISNKLSEFCNDENNKNSQKWQCYYVSSENNGCKMEKKNANHTPEVKITKFHNFFEMWVTYLLTETITWKDKLKTCMNNTKTADCIHECNKNCVCFDKWVKQKEDEWNSIKKLFTKEKKMPKQYYGNINIYFESFFFHVMKKLNKEAKWNKLMDELRNKIELSKGNEGTKDLQDAIELLLEYLKEKSTICKDNNTNEACDPTVDPTKNPC
notes: also called CIDRa1.7 IT4var22_IT4; IT4var22 (1.7)

Molecular target: T1, endothelial protein C receptor (EPCR), …
Experiment: SPR
Conditions: both partners purified

Molecule	Kd	koff	kon
B1	8.8 nM	6.62e-05 s⁻¹	7550 M⁻¹ s⁻¹
B2	8.8 nM	0.000328 s⁻¹	37000 M⁻¹ s⁻¹
B3	48 nM	0.000842 s⁻¹	17700 M⁻¹ s⁻¹
B4	6 nM	2.28e-05 s⁻¹	3640 M⁻¹ s⁻¹
B5	16 nM	0.000364 s⁻¹	22700 M⁻¹ s⁻¹
B6	4 nM	7.65e-05 s⁻¹	20200 M⁻¹ s⁻¹
B7	24.2 nM	0.000158 s⁻¹	6550 M⁻¹ s⁻¹
B8	15 nM	0.000531 s⁻¹	35100 M⁻¹ s⁻¹
B9	3.5 nM	0.00021 s⁻¹	59200 M⁻¹ s⁻¹
B10	1400 nM	0.00139 s⁻¹	975 M⁻¹ s⁻¹
B11	32 nM	0.000511 s⁻¹	15700 M⁻¹ s⁻¹
B12	50 nM	0.000828 s⁻¹	16700 M⁻¹ s⁻¹
B13	17 nM	0.00105 s⁻¹	61300 M⁻¹ s⁻¹

Molecular target: endothelial protein C receptor with an N-terminal biotin (human) (UniProt Q9UNN8)
Experiment: SPR; Biacore T200; EPCR biotinylated with BirA and coupled to a biotin capture chip to 150 RU; binding partners injected for 240 s, dissociation 300 s; 1:1 interaction model
Conditions: not given

Molecule	Kd	fold reduction of the affinity against wild-type HB3var03 CIDRα1	fold change in the dissociation rate constant against wild-type HB3var03 CIDRα1	fold effect on the affinity against wild-type HB3var03 CIDRα1
HB3var03 CIDRα1.4 F656Y (domain or fragment)	< 5 nM	4 fold		
HB3var03 CIDRα1.4 F656V (domain or fragment)	< 5 nM	4 fold		
HB3var03 CIDRα1.4 Q657K (domain or fragment)		200 fold		
HB3var03 CIDRα1.4 F655Y (domain or fragment)	< 5 nM			
HB3var03 CIDRα1.4 F655L (domain or fragment)	< 5 nM			
HB3var03 CIDRα1.4 F656A (domain or fragment)			100 fold	35 fold

Molecular target: endothelial protein C receptor (EPCR), extracellular domain, biotinylated on the N-terminal BAP tag (human) (UniProt Q9UNN8)
Experiment: SPR; Biacore T200; biotinylated EPCR captured on a CAP chip (Biotin Capture Kit) to 150 RU, fresh for each cycle; two-fold dilution series of each CIDRα1 injected for 240 s, dissociation 300 s; 20 mM HEPES pH 7.5, 150 mM NaCl, 0.005% Tween-20, 25°C; surface without EPCR subtracted; global fit to a 1:1 interaction model
Conditions: not given

Molecule	Kd	koff	kon
HB3var03 CIDRα1.4 domain, mutant W669S (domain or fragment)	11 nM	0.000449 s⁻¹	40100 M⁻¹ s⁻¹
HB3var03 CIDRα1.4 domain, mutant V658A (domain or fragment)	37 nM	0.000719 s⁻¹	19400 M⁻¹ s⁻¹
HB3var03 CIDRα1.4 domain, mutant Q657K (domain or fragment)	72 nM	0.00499 s⁻¹	68900 M⁻¹ s⁻¹
HB3var03 CIDRα1.4 domain, mutant F655L (domain or fragment)	4.3 nM	0.00063 s⁻¹	145000 M⁻¹ s⁻¹
HB3var03 CIDRα1.4 domain, mutant F656Y (domain or fragment)	1.9 nM	0.000379 s⁻¹	329000 M⁻¹ s⁻¹
HB3var03 CIDRα1.4 domain, mutant F656V (domain or fragment)	1.5 nM	0.000223 s⁻¹	145000 M⁻¹ s⁻¹
HB3var03 CIDRα1.4 domain, mutant F651A (domain or fragment)	2.5 nM	0.000394 s⁻¹	160000 M⁻¹ s⁻¹
HB3var03 CIDRα1.4 domain, mutant F655Y (domain or fragment)	0.5 nM	0.000572 s⁻¹	1.1e+06 M⁻¹ s⁻¹
